Biological target: the molecule itself
Assay: crystal structure; X-ray crystallography of β4ex; antiparallel contacts between β4ex molecules in the crystal lattice; crystals from 30% (w/v) PEG 1500, sitting drop, 20 °C

B1: mouse β4 subunit extracellular domain fragment (domain or fragment, UniProt Q7M729 30-160, looked up)
chain: SLEVSVGKATTIYAINGSSILLPCTFSSCYGFENLYFKWSYNNSETSRILIDGIVKNDKSDPKVRVKDDDRITLEGSTKEKTNNISILLSDLEFSDTGRYTCFVRNPKEKDLNNSATIFLQVVDKLEKVDN
notes: voltage-gated sodium channel β4 subunit, mouse, residues 30-160; amino acid numbering starts from the initiator methionine; His tag removed by TEV protease; contains all three Cys residues; also called β4ex; β4 extracellular domain; source: Escherichia coli cell-free method, purified (HisTrap, TEV cleavage, Mono Q, Superdex 75); not shown: histidine tag, N-terminal, cleaved
B1: binds.

From PMC4877568, “Structure-based site-directed photo-crosslinking analyses of multimeric cell-adhesive interactions of voltage-gated sodium channel β subunits” (Scientific Reports, 2016)
